Reference: patent US12428627B2, “Mutant p-hydroxyphenylpyruvate dioxygenase, and coding nucleic acid and use thereof” (Qingdao Kingagroot Chemical Compound Co., Ltd., priority 2018, dated 2025)

System: transgenic rice
Assay: Herbicide resistance of transgenic rice (T0, T1 generation) sprayed with shuangzuocaotong
Assay type: in vivo
From the text: • 1. Construction of overexpression vector • 1) Primers: primers were designed according to the selected restriction sites and the nucleotide sequence of the gene itself to amplify the three-site mutant HPPD (H141R/G342D/D370N) (OsHPPD3M). The designed primers were synthesized by Beijing Qingke Biotechnology Co., Ltd.: HPPD-F, […] ATGCCTCCCACT CCCACCC, HPPD-R, […] GGC. • 2) PCR amplification: the gene of interest was amplified by using the synthesized primer and Q5 DNA polymerase (NEB, New England Biolabs, Boston, USA). The amplified product was assayed by agarose gel electrophoresis, and the product was recovered according to operational instructions of the TIANquick Midi Purification kit. After the completion of the recovery, the concentration of extracted DNA was determined by Nanodrop. • 3) Construction of a rice overexpression vector: the rice overexpression vector pCAMBIA1301-OsHPPD3M was constructed with the recovered HPPD fragments and plasmid pCAMBIA1301 digested by KpnI and HindIII by using the HB-in Fusions™ seamless cloning kit of HanBio Biotechnology Co., Ltd., (Shanghai), and then transformed into the competent E. coli DH5α to obtain a positive clone; the positive clone was transformed into Agrobacterium after sequencing and restriction endonuclease digestion. • 2. […]

B1: H141R/G342D/D370N: three-site mutant rice HPPD (OsHPPD3M) (protein, listed as Oryza sativa)
chain: MPPTPTPTATTGAVSAAAAAGENAGFRLVGHRRFVRANPRSDRFQALAFHHVELWCADAASAAGRFAFALGAPLAARSDLSTGNSAHASLLLRSASVAFLFTAPYGGDHGVGADAATTASIPSFSPGAARRFAADHGLAVRAVALRVADAADAFRASVAAGARPAFQPADLGGGFGLAEVELYGDVVLRFVSHPDGADAPFLPGFEGVSNPGAVDYGLRRFDHVVGNVPELAPVAAYISGFTGFHEFAEFTAEDVGTAESGLNSVVLANNAETVLLPLNEPVHGTKRRSQIQTYLDHHGGPGVQHIALASDDVLGTLREMRARSAMGGFEFLAPPPPNYYDDVRRRAGDVLSEEQINECQELGVLVDRDNQGVLLQIFTKPVGDRPTFFLEMIQRIGCMEKDESGQEYQKGGCGGFGKGNFSELFKSIEEYEKSLEAKQAPTVQGS
modifications: The amino acid sequence of Wild-Type rice HPPD protein (OsHPPD _WT)
- shuangzuocaotong rate tolerated, T0 generation plants (T0 plants expressing the mutant, spraying): 8-16 grams active ingredient per mu
- shuangzuocaotong rate tolerated, T1 generation plants (T1 plants expressing the mutant, spraying): 32-64 grams active ingredient per mu
- resistance multiple of transgenic rice to HPPD-inhibiting herbicide (overexpression, field rate of shuangzuocaotong 4 g a.i./mu): at least 4
